Laboratory results taken from IntAct's records for PubMed 25150978.

Target: arhg7_human ARHGEF7 (UniProt Q14155)

For “Ras-related C3 botulinum toxin substrate 1 (Homo sapiens) (from UniProt P63000-1) G15A”, which “effect of a mutation on the interaction” value is on record?
Its value is “increasing interaction strength”.
